Assay results as given in patent US8859492.
Where no end group is shown, it is not given here. [ ]: non-standard residue; d: D form. Cha = N[C@@H](CC1CCCCC1)C(=O)O

How the values were obtained:
[1] = biological target: HCV protease (hepatitis C virus); experiment: affinity of metallopeptide for HCV protease; method not described
[2] = biological target: Recombinant human somatic ACE (sACE-1: Leu30-Leu1261, with C-terminal His tag) (human) (UniProt P12821); experiment: cell-based or functional assay
Chain of Recombinant human somatic ACE (sACE-1: Leu30-Leu1261, with C-terminal His tag) (human) (P12821 30-1261 limits assumed): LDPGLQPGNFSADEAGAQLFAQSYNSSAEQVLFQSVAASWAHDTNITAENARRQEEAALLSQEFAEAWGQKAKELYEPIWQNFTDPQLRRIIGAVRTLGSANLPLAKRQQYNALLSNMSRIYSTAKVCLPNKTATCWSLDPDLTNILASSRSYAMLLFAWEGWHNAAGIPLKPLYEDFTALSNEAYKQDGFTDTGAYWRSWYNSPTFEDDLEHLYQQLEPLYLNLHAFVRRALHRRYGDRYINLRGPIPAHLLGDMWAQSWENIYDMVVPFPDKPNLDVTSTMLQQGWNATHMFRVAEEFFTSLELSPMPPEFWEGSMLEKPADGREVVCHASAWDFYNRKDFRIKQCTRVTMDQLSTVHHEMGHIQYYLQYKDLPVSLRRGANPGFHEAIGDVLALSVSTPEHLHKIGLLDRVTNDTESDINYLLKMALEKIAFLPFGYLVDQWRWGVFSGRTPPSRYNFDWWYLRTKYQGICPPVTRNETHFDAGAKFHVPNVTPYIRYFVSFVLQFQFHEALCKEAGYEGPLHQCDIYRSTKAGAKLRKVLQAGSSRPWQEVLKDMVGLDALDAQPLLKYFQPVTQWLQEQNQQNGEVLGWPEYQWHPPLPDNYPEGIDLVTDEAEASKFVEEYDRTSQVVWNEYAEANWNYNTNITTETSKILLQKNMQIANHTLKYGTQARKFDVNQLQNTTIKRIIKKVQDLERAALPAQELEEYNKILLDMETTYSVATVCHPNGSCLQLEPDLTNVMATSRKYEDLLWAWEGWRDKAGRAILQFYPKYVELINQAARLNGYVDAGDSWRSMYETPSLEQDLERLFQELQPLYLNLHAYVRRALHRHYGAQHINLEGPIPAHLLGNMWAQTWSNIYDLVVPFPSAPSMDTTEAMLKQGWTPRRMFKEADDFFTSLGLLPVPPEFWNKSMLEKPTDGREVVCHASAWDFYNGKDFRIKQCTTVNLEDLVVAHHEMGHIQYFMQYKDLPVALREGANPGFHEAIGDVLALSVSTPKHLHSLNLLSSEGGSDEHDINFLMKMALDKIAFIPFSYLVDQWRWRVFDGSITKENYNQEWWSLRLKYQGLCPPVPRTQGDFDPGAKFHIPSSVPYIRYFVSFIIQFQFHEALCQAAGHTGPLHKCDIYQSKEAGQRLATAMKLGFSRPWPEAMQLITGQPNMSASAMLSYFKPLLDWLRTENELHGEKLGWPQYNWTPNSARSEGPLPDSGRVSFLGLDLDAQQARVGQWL

[3] = biological target: Recombinant human somatic ACE (sACE-1: Leu30-Leu1261, with C-terminal His tag) (human) (UniProt P12821); experiment: affinity based on the IC50 of sACE-1 inhibition (fluorogenic substrate cleavage)

Row | Substance | affinity [1] [µM] | IC50 of sACE-1 inhibition (cleavage of fluorogenic substrate) [2] [nM] | second order rate constant for inactivation of sACE-1, H2O2 [2] [M⁻¹ min⁻¹] | second order rate constant for inactivation of sACE-1, ascorbate [2] [M⁻¹ min⁻¹] | second order rate constant for inactivation of sACE-1, ascorbate + H2O2 [2] [M⁻¹ min⁻¹] | Ka [3] [M⁻¹]
1 | GGHD[dE]LI[Cha]CP[Cha]DL | 0.01 | – | – | – | – | –
2 | [Cu-GGH]^1- (peptide) | – | 17000 | < 2000 | < 1000 | 10000 | –
3 | Ni-GGH (M-chelate without lisinopril) (peptide) | – | – | – | < 5000 | – | –
4 | GGHDEMEEC (SEQ ID NO: 71) | 48 | – | – | – | – | –
5 | Cu-GGH-lisinopril (peptide) | – | 1470 | 28000 | 102000 | 152000 | 680000
6 | Ni-GGH-lisinopril (peptide) | – | 150 | – | 30000 | – | 6.67e+06
7 | Co-GGH-lisinopril (peptide) | – | 90 | – | – | 70000 | 1.11e+07
8 | Co-GGH (M-chelate without lisinopril) (peptide) | – | – | – | – | < 20000 | –
